Measurements published in patent US20230159610A1 (BIOTEST, published 2023).

B1: FcTregV13 (other)
chain: DKTHTCPPCPAPELLGGPSVFLFPPKPKDTLMISRTPEVTCVVVDVSHEDPEVKFNWYVDGVEVHNAKTKPREEQYQSTYRVVSVLTVLHQDWLNGKEYKCKVSNKALPAPIEKTISKAKGTDFTLTISSLQPEDDELTKNQVSLTCLVKGFYPSDIAVEWESNGQPENNYKTTPPVLDSDGSFFLYSKLTVDKSRWQQGNVFSCSVMHEALHNHYTQKSLSLSPGKKTLYLQMNSLRAEDTAKH
notes: TCP on the human IgG1 Fc-part: Treg289 in frame A, Treg084 in frame C, Treg088x C-terminal; also called Construct V13
B2: FcTregV23 (other)
chain: DKTHTCPPCPAPELLGGPSVFLFPPKPKDTLMISRTPEVTCVVVDVSHEDPEVKFNWYVDGVEVHNAKTKPREEQYNSTYRVGTDFTLTISSLQPEDEYKCKVSNKALPAPIEKTISKAKGQPREPQVYTLPPSRDELTKNQVSLTCLVKGFYPSDIAVEWESNGQPENNYKTTPPVLDSDGSFFLYSKLTVDKSRWQQGNVFSCSVMHEALHNHYTQKSLSLSPGK
notes: Human IgG1 Fc-part with Treg084 in frame A; also called Construct V23
B3: FcTregV1 (other)
chain: DKTHTCPPCPAPELLGGPSVFLFPPKPKDTLMISRTPEVTCVVVDVSHEDPEVKFNWYVDGVEVHNAKTKPREEQYQSTYRVVSVLTVLHQDWLNGKEYKCKVSNKALPAPIEKTISKAKGTDFTLTISSLQPEDDELTKNQVSLTCLVKGFYPSDIAVEWESNGQPENNYKTTPPVLDSDGSFFLYSKLTVDKSRWQQGNVFSCSVMHEALHNHYTQKSLSLSPGKLNNFYPREAKVQWKVDNALQSGNS
notes: Tregitope carrying polypeptide (TCP) built on the human IgG1 Fc-part: Treg289 in frame A, Treg084 in frame C, Treg134 C-terminal; also called Construct V1
B4: FcTregV14 (other)
chain: DKTHTCPPCPAPELLGGPSVFLFPPKPKDTLMISRTPEVTCVVVDVSHEDPEVKFNWYVDGVEVHNAKTKPREEQYNSTYRVVSVLTVLHQDWLNGKEYKCKVSNKALPAPIEKTISKAKGTDFTLTISSLQPEDDELTKNQVSLTCLVKGFYPSDIAVEWESNGQPENNYKTTPPVLDSDGSFFLYSKLTVDKSRWQQGNVFSCSVMHEALHNHYTQKSLSLSPGKLNNFYPREAKVQWKVDNALQSGNS
notes: TCP on the human IgG1 Fc-part: Treg084 in frame C, Treg134 C-terminal; also called Construct V14
B5: FcTregV32 (other)
chain: DKTHTCPPCPAPELLGGPSVFLFPPKPKDTLMISRTPEVTCVVVDVSHEDPEVKFNWYVDGVEVHNAKTKPREEQYGGLVQPGGSLRLSCAASGFTFEYKCKVSNKALPAPIEKTISKAKGTDFTLTISSLQPEDRDELTKNQVSLTCLVKGFYPSDIAVEWESNGQPENNYKTTGGLVQPGGSLRLSCAASGFTFRWQQGNVFSCSVMHEALHNHYTQKSLSLSPGKKTLYLQMNSLRAEDTAKH
notes: TCP on the human IgG1 Fc-part: Treg009A in frame A, Treg084 in frame C, Treg009A in frame B, Treg088x C-terminal; also called Construct V32
B6: FcTregV20 (other)
chain: DKTHTCPPCPAPELLGGPSVFLFPPKPKDTLMISRTPEVTCVVVDVSHEDPEVKFNWYVDGVEVHNAKTKPREEQYNSTYRVVSVLTVLHQDWLNGKEYKCKVSNKALPAPIEKTISKAGGLVQPGGSLRLSCAASGFTFNQVSLTCLVKGFYPSDIAVEWESNGQPENNYKTTPPVLDSDGSKTLYLQMNSLRAEDTAKHVFSCSVMHEALHNHYTQKSLSLSPGK
notes: also called Construct V20
B7: FcTregV34 (other)
chain: DKTHTCPPCPAPELLGGPSVFLFPPKPKDTLMISRTPEVTCVVVDVSHEDPEVKFNWYVDGVEVHNAKTKPREEQYNSTYRVVSVLTVLHQDWLNGKEYKCKVSNKALPAPIEKTISKAKGQPREPQVYTLPPSRDELTKNQVSLTCLVKGFYPSDIAVEWESNGQPENNYKTTPPEEQYQSTYRVVSVLTVLHQDWQQGNVFSCSVMHEALHNHYTQKSLSLSPGKKTLYLQMNSLRAEDTAKH
notes: TCP on the human IgG1 Fc-part: Treg289 in frame B, Treg088x C-terminal; also called Construct V34

Molecular target: the molecule itself
Assay: dimer formation of the expressed construct (self-association), Western blot of transfected cells

Binding result, binds:
B1, B2, B3, B4, B5, B6, B7
